Experimental findings from the supplement of paper PMC12042874 are described below.

This data set can be described thus: amyloid nucleation score (Sup35N fusion, yeast selection) (log enrichment); library NNK3; higher = more nucleation; inactive = no reads after selection. A digest of the protocol:
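The nucleation score is a DiMSum log enrichment of output over input reads, centred on the mode score of non-aggregating sequences. Sequences under 100 input reads were excluded, and reads came from Illumina sequencing of plasmid inserts. Psi-negative yeast expressing Sup35N fused to peptides of 20 random codons were induced with 100 μM copper sulfate for 24 hours and grown 7 days at 30°C on medium lacking adenine and uracil. Random libraries had three technical output replicates.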

± gives the uncertainty stated by the source.

For the substance EIMYVLTIFSNVFVMFFS, the amyloid nucleation score is -0.436 ± 0.44.

TLTSYEKIPSMSLSG: the amyloid nucleation score result was “inactive”.

Take GIANRAFITDGGWGLFISTY: the amyloid nucleation score result was “inactive”.

On to SASKKLTAFALVVFLRV, for which the amyloid nucleation score entry was “inactive”.

On to CVSDNSS, for which the amyloid nucleation score was -0.003 ± 0.8.

In the case of SRRFFRWLSYTFGDGRGWLL, the amyloid nucleation score result is “inactive”.

With LVHDLDLCSPGVSYQKSRMS, the amyloid nucleation score entry is “inactive”.

TILGDFVFVFILKVCFTYHR: the amyloid nucleation score was -0.806 ± 1.3.

WAVCKAHDVSVDTDYYSSTG showed an amyloid nucleation score of 0.302 ± 0.45.

For IITTHSFQTDWHISEYQDIC, the amyloid nucleation score result was “inactive”.

Regarding KGTYGFAINHHYIA, the amyloid nucleation score entry was “inactive”.

Take NGILKPETVRQI: the amyloid nucleation score entry was “inactive”.

For SYFGDYLKIYFFYTQHNLSC, the amyloid nucleation score entry is “inactive”.

In turn, WKTRHRVEVWASFLLSYQTG came in with an amyloid nucleation score of -0.551 ± 0.62.

Regarding MRCQNSCRHS, the amyloid nucleation score entry was “inactive”.

Take TWSRRGSGAPACVVVTWVPA: the amyloid nucleation score result was “inactive”.

NGLPARRV: the amyloid nucleation score result was “inactive”.

On to GVSYMNCTHWTL, for which the amyloid nucleation score entry is “inactive”.

For the substance LDMQEPPVNAVRHYLSL, the amyloid nucleation score result was “inactive”.

For STYAPWSMHHFLDLYMSNRS, the amyloid nucleation score entry was “inactive”.

With FVGSLDFNGVSEGFVASHCI, the amyloid nucleation score result is “inactive”.

In turn, RSYARRSTGILAR had an amyloid nucleation score of -0.112 ± 0.75.

As to DGDFIWISYVRKPKVNNDMF, the amyloid nucleation score entry is “inactive”.

For the substance SKGICNFMCVL, the amyloid nucleation score came out at 3.37 ± 0.077.

With IFKKLSFL, the amyloid nucleation score entry is “inactive”.

As for VFYGKGETYQEWHSLYFLKS, the amyloid nucleation score was -0.067 ± 0.98.

Regarding EVSWVSRNVWFNRTCFCVQV, the amyloid nucleation score was determined as 0.042 ± 0.64.

Consider RLYKKGRGPFHLTPAPRD, for which the amyloid nucleation score entry was “inactive”.

Regarding CQPNWGWCSARIVLHILVLR, the amyloid nucleation score entry is “inactive”.

Regarding AALAY, the amyloid nucleation score entry is “inactive”.

For the substance NRQVNCSFEGFSNRSKVYAY, the amyloid nucleation score entry is “inactive”.

Regarding TQDIKLFHRMDFQLSIKMNS, the amyloid nucleation score entry is “inactive”.

In turn, MVVQRNDYIVSVFSTLFPRS gave an amyloid nucleation score of 1.6 ± 0.096.

Turning to LKVVLYGVHQSCEYMRSRLS, the amyloid nucleation score entry was “inactive”.

Consider KMSLGLRCYSAYKEPLVQGE, for which the amyloid nucleation score was -0.055 ± 1.1.

With CMIHYSSRAILEMWLAPRMY, the amyloid nucleation score result was “inactive”.

As to CHQKMSVA, the amyloid nucleation score entry is “inactive”.

As to VRGLDVCTDEFCVQLDYMW, the amyloid nucleation score result is “inactive”.

With HKPCRCKTMLWDLAIVGSLE, the amyloid nucleation score entry was “inactive”.

YIVNLGKFKCQNLMRSCRLK: the amyloid nucleation score is 1.07 ± 0.12.

With FFCMWDRMIALWSHFCNLDG, the amyloid nucleation score result was “inactive”.

For PTQNKSDKVACGR, the amyloid nucleation score entry is “inactive”.

Regarding FKVLSFKSENSSYYVPFGLD, the amyloid nucleation score entry is “inactive”.

With VFVQTLILWVHSRIAALQDS, the amyloid nucleation score entry was “inactive”.

In turn, VGLNVSWAYIMVAEYVVYMS displayed an amyloid nucleation score of -0.698 ± 0.53.

On to WKATNNAASVFGDLYGYYAN, for which the amyloid nucleation score entry is “inactive”.

Turning to MKLDICWLRLSRCYVVVVWV, the amyloid nucleation score result is “inactive”.

In the case of MSHCYYEFARVPKWHERCPS, the amyloid nucleation score result was “inactive”.

Turning to LTSLLTARKNCTNFHN, the amyloid nucleation score entry is “inactive”.

Take LGCTGALNNRCCERQANGRQ: the amyloid nucleation score entry is “inactive”.

In the case of MAWGLVNMRMSLSAKYQGAL, the amyloid nucleation score result was “inactive”.

For QFSMLMVVLCP, the amyloid nucleation score result was “inactive”.

As to ILNRLCRDLYVAFTSSAACR, the amyloid nucleation score entry is “inactive”.

Consider VFVTM, for which the amyloid nucleation score entry was “inactive”.

For the substance FLDGFVQPISESINLLMFCT, the amyloid nucleation score entry was “inactive”.

With DDFSVPTDLIDVRRVS, the amyloid nucleation score was -0.047 ± 1.

FWKFRGQTWYCFAGTDGISH registered an amyloid nucleation score of -0.002 ± 0.75.

In the case of LHEEGCATVLKVGCALTSEC, the amyloid nucleation score result was “inactive”.

Regarding TPSSCSTLCQTDMQDQWRVG, the amyloid nucleation score result is “inactive”.

IWTLVVCFLDVRRRR registered an amyloid nucleation score of -0.05 ± 0.53.

On to IVMIVNTGIA, for which the amyloid nucleation score entry was “inactive”.

As for YYRLFLI, the amyloid nucleation score result was “inactive”.

As to IVTVLNSVLGKGFQQAPRRG, the amyloid nucleation score result is “inactive”.

Regarding NCMYSLSMQREPFYPSRGVD, the amyloid nucleation score result is “inactive”.

As to KDMMWDVSRPYFYLVTYQIG, the amyloid nucleation score result was “inactive”.

Take SFDFHRVMIPRDRPDYHPSM: the amyloid nucleation score result is “inactive”.

Consider ICYTLVTN, for which the amyloid nucleation score result was “inactive”.

Regarding YVICVISVQRWTM, the amyloid nucleation score entry was “inactive”.

For the substance LLGRKRA, the amyloid nucleation score result was “inactive”.

In turn, LLCLLQYLWPRRDSYYACLR gave an amyloid nucleation score of 0.782 ± 0.18.

On to VDLRLDY, for which the amyloid nucleation score result was “inactive”.

VCRWSGGGEIGIICGLVSLV: the amyloid nucleation score entry is “inactive”.

The substance PTELIACVAIYNVDYLYWIH yielded an amyloid nucleation score of 2 ± 0.082.

Take DSRMF: the amyloid nucleation score result is “inactive”.

With NDCRCTIFAAYIKILYKFLG, the amyloid nucleation score stood at 1.13 ± 0.097.

On to RQQRLRRKPLFWDNQAKANY, for which the amyloid nucleation score worked out at 0.211 ± 0.24.

With HVYLAQGL, the amyloid nucleation score result was “inactive”.

Turning to RCICTRFLVPWDSIA, the amyloid nucleation score entry is “inactive”.

Take GLPSFRHSF: the amyloid nucleation score entry was “inactive”.

As for VMYCYWSLIMSDSCNFMCQY, the amyloid nucleation score is 2.08 ± 0.058.

Regarding MINSCFK, the amyloid nucleation score result was “inactive”.

In the case of DRDSALWIMTVWVRGSHYTR, the amyloid nucleation score result is “inactive”.

In turn, SNRKPWARHIVDRACM came in with an amyloid nucleation score of -0.922 ± 1.9.

Consider SFVSSMCVTGEKVEGSRPCC, for which the amyloid nucleation score entry is “inactive”.

Take HSVLGMCFSPKGVDVTTLVN: the amyloid nucleation score result was “inactive”.

In the case of LMSNHCGKYWRHFSWIMTVF, the amyloid nucleation score entry was “inactive”.

PVSNRLSCDSAFTFPYNMIF returned an amyloid nucleation score of 0.883 ± 0.16.

For the substance TGYYWFLFWNMWDWHVCGSS, the amyloid nucleation score entry is “inactive”.

Consider CASSNRRESSYVLYSQWDIG, for which the amyloid nucleation score entry is “inactive”.

For TEYVMSQNHLKQW, the amyloid nucleation score result was “inactive”.

Turning to NSLFSNCARLYGNRGTLGLS, the amyloid nucleation score result is “inactive”.

Consider AETQCSSYDLCDTPSLFDVR, for which the amyloid nucleation score result is “inactive”.

In the case of HSWFFGFIFWLLNDHSIHYG, the amyloid nucleation score entry was “inactive”.

With HWCTSKFIKPNGYPREERRV, the amyloid nucleation score entry was “inactive”.

Take VKKDMRRLLMFRIGGKSFGG: the amyloid nucleation score result was “inactive”.

KRYNRFIGHLMTLYRASMGD: the amyloid nucleation score is -0.714 ± 0.88.

Take SNVTRMVRFFWVEGPTEYWY: the amyloid nucleation score entry is “inactive”.
